This passage reports abundance fitness results from the Human Domainome abundance scans (Beltran et al. 2025).

Sequences and labels used below:
B1: Histone-lysine N-methyltransferase 2A, residues 1148 to 1194; numbered along this chain, Q03164 (parent)
chain: KGRRSRRCGQCPGCQVPEDCGVCTNCLDKPKFGGRNIKKQCCKMRKC

± gives the uncertainty stated by the source.

The variants in the data set derive from B1. Put plainly: abundance fitness (aPCA) (normalised: wild type 0, dead -1); higher = more abundant; growth selection in yeast, the domain comes from the species named. The conditions noted are these: Homo sapiens.
As for KGRRSRRCGQCPGCQVPEDCGRCTNCLDKPKFGGRNIKKQCCKMRKC [V22R], the abundance fitness is -0.021 ± 0.083.

Take KGRRSRRCGQCPGCQVPEDCGCCTNCLDKPKFGGRNIKKQCCKMRKC [V22C]: the abundance fitness was -0.311 ± 0.11.

On to KGRRSRRCGQCPGCQVPEDCGQCTNCLDKPKFGGRNIKKQCCKMRKC [V22Q], for which the abundance fitness was found to be 0.079 ± 0.15.

Regarding KGRRSRRCGQCPGCQVPEDCGHCTNCLDKPKFGGRNIKKQCCKMRKC [V22H], the abundance fitness is -0.046 ± 0.13.

On to KGRRSRRCGQCPGCQVPEDCGSCTNCLDKPKFGGRNIKKQCCKMRKC [V22S], for which the abundance fitness stood at 0.061 ± 0.079.

In the case of KGRRSRRCGQCPGCQVPEDCGPCTNCLDKPKFGGRNIKKQCCKMRKC [V22P], the abundance fitness is -0.769 ± 0.12.

For KGRRSRRCGQCPGCQVPEDCGGCTNCLDKPKFGGRNIKKQCCKMRKC [V22G], the abundance fitness was -0.319 ± 0.09.

With KGRRSRRCGQCPGCQVPEDCGKCTNCLDKPKFGGRNIKKQCCKMRKC [V22K], the abundance fitness is -0.079 ± 0.14.

As for KGRRSRRCGQCPGCQVPEDCGECTNCLDKPKFGGRNIKKQCCKMRKC [V22E], the abundance fitness is -0.158 ± 0.14.

As to KGRRSRRCGQCPGCQVPEDCGDCTNCLDKPKFGGRNIKKQCCKMRKC [V22D], the abundance fitness was -0.322 ± 0.14.

Turning to KGRRSRRCGQCPGCQVPEDCGLCTNCLDKPKFGGRNIKKQCCKMRKC [V22L], the abundance fitness was -0.166 ± 0.081.

Regarding KGRRSRRCGQCPGCQVPEDCGFCTNCLDKPKFGGRNIKKQCCKMRKC [V22F], the abundance fitness was -0.009 ± 0.11.

For KGRRSRRCGQCPGCQVPEDCGWCTNCLDKPKFGGRNIKKQCCKMRKC [V22W], the abundance fitness is -0.246 ± 0.12.

Consider KGRRSRRCGQCPGCQVPEDCGNCTNCLDKPKFGGRNIKKQCCKMRKC [V22N], for which the abundance fitness is -0.28 ± 0.12.

KGRRSRRCGQCPGCQVPEDCGMCTNCLDKPKFGGRNIKKQCCKMRKC [V22M]: the abundance fitness was -0.385 ± 0.11.

With KGRRSRRCGQCPGCQVPEDCGYCTNCLDKPKFGGRNIKKQCCKMRKC [V22Y], the abundance fitness is -0.053 ± 0.1.

Turning to KGRRSRRCGQCPGCQVPEDCGVTTNCLDKPKFGGRNIKKQCCKMRKC [C23T], the abundance fitness was -0.641 ± 0.14.

For the variant KGRRSRRCGQCPGCQVPEDCGVFTNCLDKPKFGGRNIKKQCCKMRKC [C23F], the abundance fitness was -1 ± 0.19.

For KGRRSRRCGQCPGCQVPEDCGVRTNCLDKPKFGGRNIKKQCCKMRKC [C23R], the abundance fitness is -0.884 ± 0.097.

For the variant KGRRSRRCGQCPGCQVPEDCGVYTNCLDKPKFGGRNIKKQCCKMRKC [C23Y], the abundance fitness was -0.987 ± 0.17.

KGRRSRRCGQCPGCQVPEDCGVPTNCLDKPKFGGRNIKKQCCKMRKC [C23P]: the abundance fitness was -0.736 ± 0.16.

KGRRSRRCGQCPGCQVPEDCGVQTNCLDKPKFGGRNIKKQCCKMRKC [C23Q]: the abundance fitness was -0.623 ± 0.16.

KGRRSRRCGQCPGCQVPEDCGVDTNCLDKPKFGGRNIKKQCCKMRKC [C23D]: the abundance fitness is -0.516 ± 0.13.

Turning to KGRRSRRCGQCPGCQVPEDCGVVTNCLDKPKFGGRNIKKQCCKMRKC [C23V], the abundance fitness is -0.814 ± 0.094.

For KGRRSRRCGQCPGCQVPEDCGVGTNCLDKPKFGGRNIKKQCCKMRKC [C23G], the abundance fitness was -0.648 ± 0.088.

Regarding KGRRSRRCGQCPGCQVPEDCGVWTNCLDKPKFGGRNIKKQCCKMRKC [C23W], the abundance fitness is -1.03 ± 0.16.

Take KGRRSRRCGQCPGCQVPEDCGVHTNCLDKPKFGGRNIKKQCCKMRKC [C23H]: the abundance fitness is -1.07 ± 0.26.

With KGRRSRRCGQCPGCQVPEDCGVATNCLDKPKFGGRNIKKQCCKMRKC [C23A], the abundance fitness was -0.675 ± 0.1.

As for KGRRSRRCGQCPGCQVPEDCGVNTNCLDKPKFGGRNIKKQCCKMRKC [C23N], the abundance fitness is -0.766 ± 0.21.

Turning to KGRRSRRCGQCPGCQVPEDCGVKTNCLDKPKFGGRNIKKQCCKMRKC [C23K], the abundance fitness was -1 ± 0.16.

Turning to KGRRSRRCGQCPGCQVPEDCGVITNCLDKPKFGGRNIKKQCCKMRKC [C23I], the abundance fitness was -0.505 ± 0.2.

In the case of KGRRSRRCGQCPGCQVPEDCGVETNCLDKPKFGGRNIKKQCCKMRKC [C23E], the abundance fitness was -0.543 ± 0.11.

KGRRSRRCGQCPGCQVPEDCGVCHNCLDKPKFGGRNIKKQCCKMRKC [T24H]: the abundance fitness is -0.069 ± 0.13.

For KGRRSRRCGQCPGCQVPEDCGVCVNCLDKPKFGGRNIKKQCCKMRKC [T24V], the abundance fitness is -0.479 ± 0.094.

For KGRRSRRCGQCPGCQVPEDCGVCINCLDKPKFGGRNIKKQCCKMRKC [T24I], the abundance fitness was -0.345 ± 0.12.

Turning to KGRRSRRCGQCPGCQVPEDCGVCKNCLDKPKFGGRNIKKQCCKMRKC [T24K], the abundance fitness was -0.297 ± 0.16.

On to KGRRSRRCGQCPGCQVPEDCGVCWNCLDKPKFGGRNIKKQCCKMRKC [T24W], for which the abundance fitness is -0.392 ± 0.11.

On to KGRRSRRCGQCPGCQVPEDCGVCMNCLDKPKFGGRNIKKQCCKMRKC [T24M], for which the abundance fitness was -0.149 ± 0.14.

Turning to KGRRSRRCGQCPGCQVPEDCGVCYNCLDKPKFGGRNIKKQCCKMRKC [T24Y], the abundance fitness is -0.238 ± 0.15.

For KGRRSRRCGQCPGCQVPEDCGVCANCLDKPKFGGRNIKKQCCKMRKC [T24A], the abundance fitness was -0.143 ± 0.099.

With KGRRSRRCGQCPGCQVPEDCGVCFNCLDKPKFGGRNIKKQCCKMRKC [T24F], the abundance fitness was -0.412 ± 0.13.

As to KGRRSRRCGQCPGCQVPEDCGVCLNCLDKPKFGGRNIKKQCCKMRKC [T24L], the abundance fitness is -0.477 ± 0.091.

With KGRRSRRCGQCPGCQVPEDCGVCPNCLDKPKFGGRNIKKQCCKMRKC [T24P], the abundance fitness is -0.091 ± 0.13.

As for KGRRSRRCGQCPGCQVPEDCGVCRNCLDKPKFGGRNIKKQCCKMRKC [T24R], the abundance fitness is -0.611 ± 0.095.

As to KGRRSRRCGQCPGCQVPEDCGVCENCLDKPKFGGRNIKKQCCKMRKC [T24E], the abundance fitness amounted to 0.038 ± 0.12.

Regarding KGRRSRRCGQCPGCQVPEDCGVCNNCLDKPKFGGRNIKKQCCKMRKC [T24N], the abundance fitness is -0.521 ± 0.19.

Consider KGRRSRRCGQCPGCQVPEDCGVCSNCLDKPKFGGRNIKKQCCKMRKC [T24S], for which the abundance fitness was -0.256 ± 0.1.

Turning to KGRRSRRCGQCPGCQVPEDCGVCGNCLDKPKFGGRNIKKQCCKMRKC [T24G], the abundance fitness is -0.207 ± 0.086.

Consider KGRRSRRCGQCPGCQVPEDCGVCCNCLDKPKFGGRNIKKQCCKMRKC [T24C], for which the abundance fitness was -0.441 ± 0.12.

In the case of KGRRSRRCGQCPGCQVPEDCGVCQNCLDKPKFGGRNIKKQCCKMRKC [T24Q], the abundance fitness is -0.067 ± 0.12.

Take KGRRSRRCGQCPGCQVPEDSGVCTNCLDKPKFGGRNIKKQCCKMRKC [C20S]: the abundance fitness is -0.832 ± 0.12.

As for KGRRSRRCGQCPGCQVPEDAGVCTNCLDKPKFGGRNIKKQCCKMRKC [C20A], the abundance fitness is -0.961 ± 0.13.

For the variant KGRRSRRCGQCPGCQVPEDFGVCTNCLDKPKFGGRNIKKQCCKMRKC [C20F], the abundance fitness was -1.03 ± 0.2.

On to KGRRSRRCGQCPGCQVPEDDGVCTNCLDKPKFGGRNIKKQCCKMRKC [C20D], for which the abundance fitness was -0.782 ± 0.21.

KGRRSRRCGQCPGCQVPEDEGVCTNCLDKPKFGGRNIKKQCCKMRKC [C20E]: the abundance fitness is -0.736 ± 0.16.
